The chains are these.
B3: recombinant RECQL4 (natural protein, human, UniProt O94761 1-1208, looked up)
chain: MERLRDVRERLQAWERAFRRQRGRRPSQDDVEAAPEETRALYREYRTLKRTTGQAGGGLRSSESLPAAAEEAPEPRCWGPHLNRAATKSPQSTPGRSRQGSVPDYGQRLKANLKGTLQAGPALGRRPWPLGRASSKASTPKPPGTGPVPSFAEKVSDEPPQLPEPQPRPGRLQHLQASLSQRLGSLDPGWLQRCHSEVPDFLGAPKACRPDLGSEESQLLIPGESAVLGPGAGSQGPEASAFQEVSIRVGSPQPSSSGGEKRRWNEEPWESPAQVQQESSQAGPPSEGAGAVAVEEDPPGEPVQAQPPQPCSSPSNPRYHGLSPSSQARAGKAEGTAPLHIFPRLARHDRGNYVRLNMKQKHYVRGRALRSRLLRKQAWKQKWRKKGECFGGGGATVTTKESCFLNEQFDHWAAQCPRPASEEDTDAVGPEPLVPSPQPVPEVPSLDPTVLPLYSLGPSGQLAETPAEVFQALEQLGHQAFRPGQERAVMRILSGISTLLVLPTGAGKSLCYQLPALLYSRRSPCLTLVVSPLLSLMDDQVSGLPPCLKAACIHSGMTRKQRESVLQKIRAAQVHVLMLTPEALVGAGGLPPAAQLPPVAFACIDEAHCLSQWSHNFRPCYLRVCKVLRERMGVHCFLGLTATATRRTASDVAQHLAVAEEPDLHGPAPVPTNLHLSVSMDRDTDQALLTLLQGKRFQNLDSIIIYCNRREDTERIAALLRTCLHAAWVPGSGGRAPKTTAEAYHAGMCSRERRRVQRAFMQGQLRVVVATVAFGMGLDRPDVRAVLHLGLPPSFESYVQAVGRAGRDGQPAHCHLFLQPQGEDLRELRRHVHADSTDFLAVKRLVQRVFPACTCTCTRPPSEQEGAVGGERPVPKYPPQEAEQLSHQAAPGPRRVCMGHERALPIQLTVQALDMPEEAIETLLCYLELHPHHWLELLATTYTHCRLNCPGGPAQLQALAHRCPPLAVCLAQQLPEDPGQGSSSVEFDMVKLVDSMGWELASVRRALCQLQWDHEPRTGVRRGTGVLVEFSELAFHLRSPGDLTAEEKDQICDFLYGRVQARERQALARLRRTFQAFHSVAFPSCGPCLEQQDEERSTRLKDLLGRYFEEEEGQEPGGMEDAQGPEPGQARLQDWEDQVRCDIRQFLSLRPEEKFSSRAVARIFHGIGSPCYPAQVYGQDRRFWRKYLHLSFHALVGLATEELLQVAR

One assay concerns the target T1, purified RECQL4-3XFLAG (human, UniProt O94761 1-1208).
T1 sequence (looked up): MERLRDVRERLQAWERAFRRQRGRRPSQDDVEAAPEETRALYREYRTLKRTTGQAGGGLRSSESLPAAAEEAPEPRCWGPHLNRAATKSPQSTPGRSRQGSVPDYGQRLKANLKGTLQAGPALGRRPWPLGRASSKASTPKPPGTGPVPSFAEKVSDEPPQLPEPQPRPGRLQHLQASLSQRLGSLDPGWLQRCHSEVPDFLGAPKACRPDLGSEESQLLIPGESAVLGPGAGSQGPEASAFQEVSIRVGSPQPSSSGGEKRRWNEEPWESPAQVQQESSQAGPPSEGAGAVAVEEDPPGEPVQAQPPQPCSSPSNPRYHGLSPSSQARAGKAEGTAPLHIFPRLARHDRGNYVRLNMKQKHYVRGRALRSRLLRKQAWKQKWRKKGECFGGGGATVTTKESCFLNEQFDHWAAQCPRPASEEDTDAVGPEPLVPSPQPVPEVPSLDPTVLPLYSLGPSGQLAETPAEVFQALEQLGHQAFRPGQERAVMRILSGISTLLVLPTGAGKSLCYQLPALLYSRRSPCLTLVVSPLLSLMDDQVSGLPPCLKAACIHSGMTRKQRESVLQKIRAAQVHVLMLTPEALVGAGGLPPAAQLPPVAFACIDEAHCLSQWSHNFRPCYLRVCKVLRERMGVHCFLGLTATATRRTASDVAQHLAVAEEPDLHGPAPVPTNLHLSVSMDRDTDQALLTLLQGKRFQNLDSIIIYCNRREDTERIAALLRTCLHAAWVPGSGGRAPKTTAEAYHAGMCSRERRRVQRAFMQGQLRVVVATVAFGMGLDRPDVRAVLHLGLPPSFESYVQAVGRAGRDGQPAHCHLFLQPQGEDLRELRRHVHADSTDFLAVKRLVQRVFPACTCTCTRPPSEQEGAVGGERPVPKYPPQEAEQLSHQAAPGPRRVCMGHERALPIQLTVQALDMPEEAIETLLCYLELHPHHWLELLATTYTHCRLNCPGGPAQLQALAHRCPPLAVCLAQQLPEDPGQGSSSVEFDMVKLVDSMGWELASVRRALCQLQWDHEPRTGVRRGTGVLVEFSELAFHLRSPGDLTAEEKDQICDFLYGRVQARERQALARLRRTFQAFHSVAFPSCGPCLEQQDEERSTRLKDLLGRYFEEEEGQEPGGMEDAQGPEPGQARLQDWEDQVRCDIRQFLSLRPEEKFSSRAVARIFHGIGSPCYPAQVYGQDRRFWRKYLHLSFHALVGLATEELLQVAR
The experiment in a line: pull-down.

For another assay, the target named is T2, RECQL4-KM-3XFLAG (human, UniProt O94761 1-1208, lysine 508 replaced with methionine (RECQL4-KM)).
T2 sequence (looked up): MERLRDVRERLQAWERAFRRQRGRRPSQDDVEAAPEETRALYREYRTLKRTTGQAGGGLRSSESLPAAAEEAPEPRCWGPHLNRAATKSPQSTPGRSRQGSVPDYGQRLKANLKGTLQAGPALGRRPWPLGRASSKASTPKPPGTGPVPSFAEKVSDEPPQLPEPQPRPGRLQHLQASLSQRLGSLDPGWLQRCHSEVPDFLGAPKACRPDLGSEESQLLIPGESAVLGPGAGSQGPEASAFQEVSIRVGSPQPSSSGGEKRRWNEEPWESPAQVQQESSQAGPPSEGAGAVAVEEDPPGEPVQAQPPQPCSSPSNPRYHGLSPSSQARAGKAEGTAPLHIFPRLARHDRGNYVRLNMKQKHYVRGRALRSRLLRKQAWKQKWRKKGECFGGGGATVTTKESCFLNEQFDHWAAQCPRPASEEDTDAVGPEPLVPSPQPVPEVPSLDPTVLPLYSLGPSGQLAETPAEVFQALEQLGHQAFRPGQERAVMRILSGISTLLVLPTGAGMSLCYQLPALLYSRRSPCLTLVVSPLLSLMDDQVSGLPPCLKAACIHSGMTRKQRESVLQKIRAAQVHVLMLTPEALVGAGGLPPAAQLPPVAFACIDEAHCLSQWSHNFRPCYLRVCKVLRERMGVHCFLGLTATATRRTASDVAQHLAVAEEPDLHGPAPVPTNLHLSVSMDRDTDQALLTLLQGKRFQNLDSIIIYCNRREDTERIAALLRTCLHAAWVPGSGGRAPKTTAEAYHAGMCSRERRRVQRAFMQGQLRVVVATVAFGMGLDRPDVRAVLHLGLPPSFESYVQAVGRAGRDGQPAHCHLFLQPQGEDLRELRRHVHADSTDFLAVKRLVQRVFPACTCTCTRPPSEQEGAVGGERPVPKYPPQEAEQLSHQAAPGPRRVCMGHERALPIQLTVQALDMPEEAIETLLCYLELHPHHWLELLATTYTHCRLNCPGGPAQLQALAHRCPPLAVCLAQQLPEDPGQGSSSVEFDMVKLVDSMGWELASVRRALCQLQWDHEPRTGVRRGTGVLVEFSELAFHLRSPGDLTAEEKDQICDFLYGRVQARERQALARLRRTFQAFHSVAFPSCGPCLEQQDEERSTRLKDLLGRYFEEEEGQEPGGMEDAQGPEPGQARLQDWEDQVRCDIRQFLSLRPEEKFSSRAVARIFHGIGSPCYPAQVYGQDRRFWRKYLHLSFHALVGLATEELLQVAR
In words: pull-down.

The assay “recombinant RECQL4” concerns the target B3. In words: co-IP.
For assay [1], the target named is MRE11-RAD50-NBS1 complex (recombinant) (human, UniProt P49959 1-708; Q92878 1-1312; O60934 1-754). The experiment in a line: co-IP.
MRE11-RAD50-NBS1 complex (recombinant), sequence (Q92878 whole entry, chain 2 of 2): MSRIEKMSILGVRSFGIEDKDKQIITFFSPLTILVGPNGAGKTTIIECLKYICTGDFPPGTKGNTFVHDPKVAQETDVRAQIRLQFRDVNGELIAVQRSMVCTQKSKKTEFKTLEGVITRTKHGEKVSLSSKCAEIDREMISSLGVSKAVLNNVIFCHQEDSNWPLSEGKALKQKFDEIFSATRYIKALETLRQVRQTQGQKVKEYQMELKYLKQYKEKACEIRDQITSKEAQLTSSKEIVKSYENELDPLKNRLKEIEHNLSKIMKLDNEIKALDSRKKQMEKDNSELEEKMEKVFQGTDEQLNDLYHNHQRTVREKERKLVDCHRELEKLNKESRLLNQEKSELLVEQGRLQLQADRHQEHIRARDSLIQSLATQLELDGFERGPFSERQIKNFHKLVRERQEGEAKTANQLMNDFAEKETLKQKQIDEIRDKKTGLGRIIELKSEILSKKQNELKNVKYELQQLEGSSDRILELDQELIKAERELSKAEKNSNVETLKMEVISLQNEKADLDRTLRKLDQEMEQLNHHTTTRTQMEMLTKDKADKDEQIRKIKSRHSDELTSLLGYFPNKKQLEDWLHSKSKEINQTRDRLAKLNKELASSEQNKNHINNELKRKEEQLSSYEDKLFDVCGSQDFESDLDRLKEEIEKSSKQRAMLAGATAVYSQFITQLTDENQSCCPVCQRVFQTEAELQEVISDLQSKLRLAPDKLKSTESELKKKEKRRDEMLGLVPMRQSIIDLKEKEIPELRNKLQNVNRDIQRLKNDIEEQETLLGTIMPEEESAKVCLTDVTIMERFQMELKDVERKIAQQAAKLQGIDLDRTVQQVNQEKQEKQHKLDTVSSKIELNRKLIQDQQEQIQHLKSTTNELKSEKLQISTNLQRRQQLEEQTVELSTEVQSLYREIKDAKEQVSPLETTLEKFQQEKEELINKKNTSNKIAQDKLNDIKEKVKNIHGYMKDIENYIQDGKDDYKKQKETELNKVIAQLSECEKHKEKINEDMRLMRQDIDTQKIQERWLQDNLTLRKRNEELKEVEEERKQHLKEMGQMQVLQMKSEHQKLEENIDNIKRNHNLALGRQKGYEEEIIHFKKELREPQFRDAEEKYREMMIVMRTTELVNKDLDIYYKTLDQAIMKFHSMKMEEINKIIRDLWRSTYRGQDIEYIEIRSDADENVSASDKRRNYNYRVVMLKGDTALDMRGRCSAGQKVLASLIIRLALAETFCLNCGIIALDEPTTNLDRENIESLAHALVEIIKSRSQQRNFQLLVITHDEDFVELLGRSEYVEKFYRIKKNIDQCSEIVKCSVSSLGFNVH
MRE11-RAD50-NBS1 complex (recombinant), sequence (O60934 whole entry, chain 3 of 2): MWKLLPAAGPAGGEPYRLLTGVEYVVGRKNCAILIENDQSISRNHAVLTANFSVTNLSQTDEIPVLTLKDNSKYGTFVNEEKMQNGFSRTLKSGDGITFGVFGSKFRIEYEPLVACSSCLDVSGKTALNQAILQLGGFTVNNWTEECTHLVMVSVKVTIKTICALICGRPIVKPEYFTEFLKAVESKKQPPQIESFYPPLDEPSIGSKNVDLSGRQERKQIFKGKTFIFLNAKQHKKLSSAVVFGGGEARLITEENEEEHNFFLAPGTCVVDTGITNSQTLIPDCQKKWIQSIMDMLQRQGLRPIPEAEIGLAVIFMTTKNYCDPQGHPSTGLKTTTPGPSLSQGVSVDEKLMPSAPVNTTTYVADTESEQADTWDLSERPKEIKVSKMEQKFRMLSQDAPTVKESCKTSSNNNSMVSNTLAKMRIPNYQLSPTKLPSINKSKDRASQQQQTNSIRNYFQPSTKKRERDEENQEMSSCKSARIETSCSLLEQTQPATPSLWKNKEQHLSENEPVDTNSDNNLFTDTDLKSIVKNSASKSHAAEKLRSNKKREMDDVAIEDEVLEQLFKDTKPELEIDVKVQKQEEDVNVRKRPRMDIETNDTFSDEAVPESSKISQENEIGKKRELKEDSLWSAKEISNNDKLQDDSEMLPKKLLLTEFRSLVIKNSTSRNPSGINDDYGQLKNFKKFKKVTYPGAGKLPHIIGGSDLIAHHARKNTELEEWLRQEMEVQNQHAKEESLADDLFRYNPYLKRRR

B1: purified YFP-MRE11 (natural protein, human, UniProt P49959 1-708, looked up)
chain: MSTADALDDENTFKILVATDIHLGFMEKDAVRGNDTFVTLDEILRLAQENEVDFILLGGDLFHENKPSRKTLHTCLELLRKYCMGDRPVQFEILSDQSVNFGFSKFPWVNYQDGNLNISIPVFSIHGNHDDPTGADALCALDILSCAGFVNHFGRSMSVEKIDISPVLLQKGSTKIALYGLGSIPDERLYRMFVNKKVTMLRPKEDENSWFNLFVIHQNRSKHGSTNFIPEQFLDDFIDLVIWGHEHECKIAPTKNEQQLFYISQPGSSVVTSLSPGEAVKKHVGLLRIKGRKMNMHKIPLHTVRQFFMEDIVLANHPDIFNPDNPKVTQAIQSFCLEKIEEMLENAERERLGNSHQPEKPLVRLRVDYSGGFEPFSVLRFSQKFVDRVANPKDIIHFFRHREQKEKTGEEINFGKLITKPSEGTTLRVEDLVKQYFQTAEKNVQLSLLTERGMGEAVQEFVDKEEKDAIEELVKYQLEKTQRFLKERHIDALEDKIDEEVRRFRETRQKNTNEEDDEVREAMTRARALRSQSEESASAFSADDLMSIDLAEQMANDSDDSISAATNKGRGRGRGRRGGRGQNSASRGGSQRGRADTGLETSTRSRNSKTAVSASRNMSIIDAFKSTRQQPSRNVTTKNYSEVIEVDESDVEEDIFPTTSKTDQRWSSTSSSKIMSQSQVSKGVDFESSEDDDDDPFMNTSSLRRNRR
With B1, the binding result in the assay with purified RECQL4-3XFLAG and in the assay with RECQL4-KM-3XFLAG was “binds” each time.

B2: recombinant CtIP (natural protein, human, UniProt Q99708 1-897, looked up)
chain: MNISGSSCGSPNSADTSSDFKDLWTKLKECHDREVQGLQVKVTKLKQERILDAQRLEEFFTKNQQLREQQKVLHETIKVLEDRLRAGLCDRCAVTEEHMRKKQQEFENIRQQNLKLITELMNERNTLQEENKKLSEQLQQKIENDQQHQAAELECEEDVIPDSPITAFSFSGVNRLRRKENPHVRYIEQTHTKLEHSVCANEMRKVSKSSTHPQHNPNENEILVADTYDQSQSPMAKAHGTSSYTPDKSSFNLATVVAETLGLGVQEESETQGPMSPLGDELYHCLEGNHKKQPFEESTRNTEDSLRFSDSTSKTPPQEELPTRVSSPVFGATSSIKSGLDLNTSLSPSLLQPGKKKHLKTLPFSNTCISRLEKTRSKSEDSALFTHHSLGSEVNKIIIQSSNKQILINKNISESLGEQNRTEYGKDSNTDKHLEPLKSLGGRTSKRKKTEEESEHEVSCPQASFDKENAFPFPMDNQFSMNGDCVMDKPLDLSDRFSAIQRQEKSQGSETSKNKFRQVTLYEALKTIPKGFSSSRKASDGNCTLPKDSPGEPCSQECIILQPLNKCSPDNKPSLQIKEENAVFKIPLRPRESLETENVLDDIKSAGSHEPIKIQTRSDHGGCELASVLQLNPCRTGKIKSLQNNQDVSFENIQWSIDPGADLSQYKMDVTVIDTKDGSQSKLGGETVDMDCTLVSETVLLKMKKQEQKGEKSSNEERKMNDSLEDMFDRTTHEEYESCLADSFSQAADEEEELSTATKKLHTHGDKQDKVKQKAFVEPYFKGDERETSLQNFPHIEVVRKKEERRKLLGHTCKECEIYYADMPAEEREKKLASCSRHRFRYIPPNTPENFWEVGFPSTQTCMERGYIKEDLDPCPRPKRRQPYNAIFSPKGKEQKT
On to B2, for which, in the assay with recombinant RECQL4, the binding result is listed as “binds”.

Regarding B3, in assay [1], the binding result is reported as “binds”.
